In patent US20190352423A1 (Genmab, published 2019):
Substitutions are numbered along the chain they refer to. Names may count otherwise.

T1: recombinant human CD63 second extracellular domain (Ala 103-Val 203) fused with a polyhistidine tag at the … (human, UniProt P08962 103-203)
T1 construct: range 103-203; Bought from Creative BioMart; also called human His-tagged CD63; soluble CD63
T1 sequence (looked up): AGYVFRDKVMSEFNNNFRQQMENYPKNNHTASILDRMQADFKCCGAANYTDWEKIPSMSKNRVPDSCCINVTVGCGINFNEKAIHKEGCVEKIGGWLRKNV

B1: wild type IgG1-CD63 (antibody, V domains shown)
VH: EVQLQQSGPELVKPGASVKMSCKASGYTFTSYVMHWVRQTPGQGLEWIGYITPYNDGTKYNEKFKGKATLTSDKSSSTAYMELSSLTSEDSAVYYCVGGDNYYYAMDYWGQGTSVTVSA
VL: NIMVTQSPSSLAVSAGEKVTMSCKSSQSVLYSSNQKNYLAWYQQKPGQSPKLLIYWASTRVSGVPDRFTGSGSGTDFTLTISRVQAEDLAVYYCHQYFSSFTFGSGTKLEIKR
notes: Mouse 2192 variable domains on human IgG1 constant domains (heavy chain with K409R or F405L) and a human light chain constant domain; also called wt IgG1-CD63; WT
B2: IgG1-CD63 affinity variant Y121H (antibody, V domains shown)
VH: B1 VH with Y102H
VL: B1 VL
notes: As m1 with one histidine substitution
B3: IgG1-CD63 affinity variant LV49H (antibody, V domains shown)
VH: B1 VH
VL: B1 VL with V29H
notes: As m1 with one histidine substitution in the light chain
B4: IgG1-CD63 affinity variant Y127 (antibody, V domains shown)
VH: B1 VH with Y108H
VL: B1 VL
notes: as for B2
B5: IgG1-CD63 affinity variant T71H (antibody, V domains shown)
VH: B1 VH with T52H
VL: B1 VL
B6: IgG1-CD63N74H (antibody, V domains shown)
VH: B1 VH with N55H
VL: B1 VL
notes: also called anti-CD63-N74H
B7: IgG1-CD63 affinity variant LS52 (antibody, V domains shown)
VH: B1 VH
VL: B1 VL with S32H
notes: as for B3
B8: IgG1-CD63 affinity variant P72H (antibody, V domains shown)
VH: B1 VH with P53H
VL: B1 VL
B9: IgG1-CD63 affinity variant LY51H (antibody, V domains shown)
VH: B1 VH
VL: B1 VL with Y31H
notes: as for B3
B10: IgG1-CD63 affinity variant Y79H (antibody, V domains shown)
VH: B1 VH with Y60H
VL: B1 VL
notes: as for B2
B11: IgG1-CD63 affinity variant LQ47 (antibody, V domains shown)
VH: B1 VH
VL: B1 VL with Q27H
notes: as for B3
B12: IgG1-CD63 affinity variant Y46 (antibody, V domains shown)
VH: B1 VH with Y27H
VL: B1 VL
notes: as for B2
B13: IgG1-CD63 affinity variant G76H (antibody, V domains shown)
VH: B1 VH with G57H
VL: B1 VL
notes: as for B2
B14: anti-CD63-LN54H (antibody, V domains shown)
VH: B1 VH
VL: B1 VL with N34H

Each binder was assayed against T1, recombinant human CD63 second … (assay: BLI (Octet HTX), IgG on anti-human Fc sensors, His-tagged CD63 as analyte, 30 C).
Procedure: Association and dissociation kinetics of human His-tagged CD63 (100 nM, 50 nM, 25 nM and 12.5 nM, concentrations were calculated using the predicted molecular weight of 13 kDa) were determined in Sample Diluent (ForteBio), using an association time of 1000 s, a dissociation time of 2000 s and a shaker speed of 1000 rpm at 30° C. Data traces were corrected using a reference sensor exposed to Sample Diluent only during the association and dissociation steps, the Y-axis was aligned to baseline and Inter-step correction as well as Savitzky-Golay filtering were applied. The association rate constant Kₒₙ (1/Ms), dissociation rate constant Kdis (1/s) and equilibrium dissociation constant KD (M) were determined with ForteBio Data Analysis Software v8.1, using the 1:1 model and a global full fit.

Kd | koff | kon | Binder
0.54 nM | 0.00011 s⁻¹ | 200000 M⁻¹ s⁻¹ | B1
20 nM | 0.0014 s⁻¹ | 70000 M⁻¹ s⁻¹ | B2
27 nM |  |  | B3
0.54 nM | 0.00011 s⁻¹ | 200000 M⁻¹ s⁻¹ | B4
7.3 nM | 0.0011 s⁻¹ | 150000 M⁻¹ s⁻¹ | B5
4.1 nM | 0.00069 s⁻¹ | 170000 M⁻¹ s⁻¹ | B6
0.36 nM | 6.3e-05 s⁻¹ | 170000 M⁻¹ s⁻¹ | B7
3.3 nM | 0.00057 s⁻¹ | 170000 M⁻¹ s⁻¹ | B8
20 nM | 0.0019 s⁻¹ | 98000 M⁻¹ s⁻¹ | B9
0.67 nM | 0.00014 s⁻¹ | 210000 M⁻¹ s⁻¹ | B10
0.37 nM | 6.7e-05 s⁻¹ | 180000 M⁻¹ s⁻¹ | B11
0.78 nM | 0.00016 s⁻¹ | 200000 M⁻¹ s⁻¹ | B12
17 nM | 0.00038 s⁻¹ | 22000 M⁻¹ s⁻¹ | B13
2 nM | 0.00039 s⁻¹ | 190000 M⁻¹ s⁻¹ | B14

These binders were tested against T1, recombinant human CD63 second … (assay: ELISA: antibody (1 µg/mL) captured on goat anti-human IgG, recombinant human His-tagged CD63 serially diluted (x axis, µg/mL CD63), detected with anti-poly-histidine-biotin, OD 405 nm).
From the text: To improve efficacy of ADCs, a bispecific ADC was generated that specifically binds to a target protein (T) with one Fab-arm, while its second Fab-arm binds an effector protein (E), that facilitates internalization and lysosomal delivery of the cytotoxic payload. The resulting bsADC should induce cytotoxicity in cells that express both T and E. Some cytotoxicity may also be induced in cells that express T but not E, whereas the bsADC should not induce cytotoxicity in cells that express E but not TCD63 is used as effector protein (E). To ensure tumor specificity of the bsAb, the anti-CD63 arm (E) of the bsAb should preferably not bind and internalize in the absence of the tumor-specific arm (T) or only do this to a very limited degree. […] In short, ELISA plates (Greiner) were coated overnight at 4° C. with 0.8 μg/mL goat anti-human IgG (Jackson). […] Serially diluted (1-0.0005 μg/mL) recombinant human CD63 (Creative Biomart) was added followed by 1 μg/mL mouse anti-poly-histidine-biotin (R&D). The reaction was visualized using ABTS and stopped with oxalic acid. […] at 405 nm was measured and depicted using Graph Pad Prism 6 software.

EC50 (read off the curve) | Binder
~0.01 µg/mL | B1
~0.06 µg/mL | B6
